Experimental data from article PMC7583315, “Disruptive natural selection by male reproductive potential prevents underexpression of protein-coding genes on the human Y chromosome as a self-domestication syndrome”.

Key:
TBP (Homo sapiens) = TBP (Homo sapiens) (UniProt P20226); settings: cited from earlier work
[1] = target: T1, TBP (TATA-binding protein) (human, UniProt P20226 1-339); test: EMSA; 2 nM TBP; EMSA with 2 nM TBP and varied ODN concentrations; Kd from reaction rates vs ODN concentration (GraphPad Prism 5); buffer, salt, pH and temperature not given in; settings: protein: recombinant; blunt
[2] = target: T1, TBP (TATA-binding protein); test: EMSA; 2 nM TBP; Kd from association kinetics; EMSA with 2 nM TBP and varied ODN concentrations; Kd from reaction rates vs ODN concentration (GraphPad Prism 5); buffer, salt, pH and temperature not given in; settings: protein: recombinant; blunt

T1 sequence (P20226 whole entry): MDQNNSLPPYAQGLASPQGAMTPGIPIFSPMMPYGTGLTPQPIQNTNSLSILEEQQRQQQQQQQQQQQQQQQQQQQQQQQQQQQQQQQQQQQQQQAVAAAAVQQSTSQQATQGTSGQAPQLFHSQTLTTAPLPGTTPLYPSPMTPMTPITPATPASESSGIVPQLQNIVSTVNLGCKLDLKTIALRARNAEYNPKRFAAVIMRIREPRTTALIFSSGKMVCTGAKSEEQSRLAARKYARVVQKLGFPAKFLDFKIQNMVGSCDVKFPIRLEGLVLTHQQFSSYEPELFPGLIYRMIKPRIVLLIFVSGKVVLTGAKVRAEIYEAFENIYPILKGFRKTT
TBP, sequence (P20226 whole entry): as above

Molecule | Kd [1] [nM] | further results
TBP (from UniProt P20226) | – | Kd (TBP (Homo sapiens)): 4 nM
CDY2A -24 minor (printed -24t, sequence has C) (dsDNA) DNA 1: AGAATGTTCCATACAATCGTCATAGC DNA 2: GCTATGACGATTGTATGGAACATTCT | 500 ± 200 | –
GTPBP6 -24T (rs1393008234 minor) (dsDNA) DNA 1: ATCACGAGCACGTTATGAGGAGCGGC DNA 2: GCCGCTCCTCATAACGTGCTCGTGAT | 1400 ± 200 | –
GTPBP6 -24G (rs1393008234 WT) (dsDNA) DNA 1: ATCACGAGCACGTGATGAGGAGCGGC DNA 2: GCCGCTCCTCATCACGTGCTCGTGAT | 1500 ± 200 | –
ASMT -30G (rs1402972626 WT) (dsDNA) DNA 1: GGTGACCTTTTGTGCCCAGAATAGGT DNA 2: ACCTATTCTGGGCACAAAAGGTCACC | 600 ± 300 | –
ASMT -30A (rs1402972626 minor) (dsDNA) DNA 1: GGTGACCTTTTGTACCCAGAATAGGT DNA 2: ACCTATTCTGGGTACAAAAGGTCACC | 1000 ± 300 | –
ZFY -56C (WT) (dsDNA) DNA 1: GGCGGAGGGGGCCCAACTACCATCCC DNA 2: GGGATGGTAGTTGGGCCCCCTCCGCC | 1000 ± 400 | –
CDY2A -24 WT (printed -24G, sequence has T) (dsDNA) DNA 1: AGAATGTTCCATATAATCGTCATAGC DNA 2: GCTATGACGATTATATGGAACATTCT | 160 ± 30 | –
SHOX -45G (rs1452787381 minor) (dsDNA) DNA 1: GAGGTCGCCGCGTGTAAATAGTGAGA DNA 2: TCTCACTATTTACACGCGGCGACCTC | – | Kd [2]: 260 ± 70 nM
SHOX -45A (rs1452787381 WT) (dsDNA) DNA 1: GAGGTCGCCGCGTATAAATAGTGAGA DNA 2: TCTCACTATTTATACGCGGCGACCTC | – | Kd [2]: 39 ± 7 nM
ZFY -56T (minor) (dsDNA) DNA 1: GGCGGAGGGGGCCTAACTACCATCCC DNA 2: GGGATGGTAGTTAGGCCCCCTCCGCC | 2000 ± 1000 | –
